Data: patent US20210260163A1

Target: IL-2Rα (on CTLL2 cells) (UniProt P01590)
Assay: cell-based or functional assay

Chain of IL-2Rα (on CTLL2 cells) (P01590 22-268 limits assumed): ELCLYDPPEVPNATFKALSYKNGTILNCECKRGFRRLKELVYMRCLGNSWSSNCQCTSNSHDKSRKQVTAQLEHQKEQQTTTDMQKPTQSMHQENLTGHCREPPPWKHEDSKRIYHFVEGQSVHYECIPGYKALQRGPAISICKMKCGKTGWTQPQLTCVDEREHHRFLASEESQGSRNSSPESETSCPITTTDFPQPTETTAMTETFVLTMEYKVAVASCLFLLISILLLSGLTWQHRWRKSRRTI

EC50 in the CTLL2 cell-based activity assay | Substance
77 nM | HSA-IL-2-T3A/C125S-F42A/Y45A/L72G (SEQ ID NO: 126)
76 nM | HSA-IL-2-T3A/C125S-R38S/F42A/Y45A/E62A (SEQ ID NO: 127)
60 nM | IgG1FC (with LALA and Knob)-IL-2-T3A/C125S-R38S/F42A/Y45A/A73T (SEQ ID NO: 135) paired with Fc hole (SEQ ID NO: 194) (from UniProt P0DOX5 223-449) (Fc fusion)
60 nM | IgG1FC (with LALA and Knob)-IL-2-T3A/C125S-R38S/F42A/Y45A/E62A (SEQ ID NO: 132) paired with Fc hole (SEQ ID NO: 194) (from UniProt P0DOX5 223-449) (Fc fusion)
